experiment: soluble on expression in E. coli; label from the status in PepcDB or PDB records

Sequence | soluble on expression in E. coli
MFKRLMMVALLVIAPLSAATAADQSNPYKLMNEAAQKTFDRLKNEQPKIRANPDYLRDVVDQELLPYVQVKYAGALVLGRYYKEATPAQREAYFAAFREYLKQAYGQALAMYHGQTYQIAPEQPLGDATIVPIRVTIIDPNGRPPVRLDFQWRKNTQTGNWQAYDMIAEGVSMITTKQNEWSDLLRTKGIDGLTAQLKSISQQKITLDEKQLEHHHHHH | soluble
MRTAVIIPFYQREAGILSRALDSVDGQILPEGHSLTVFVIDDESPVSARSEVEGRQGKVPVRLIAQKNGGPGAARNAGLDAVAAEGFDHVAFLDSDDIWQPTHLADALDLLARGYDFHFCDHQRTDDDITYFERTPALRRMREERHAGVTVLDAEAPILAFDQPSIMAASVDTYLSQTSTVVVRQSFVETLRFDPRLRNAGEDQLFWLSLIAAGARTVVSWKMNVLCGRGVNVYFDAFDWKSTKVVDRTGYMLMFFHTVGRRLSLTASDRRTVADRIRRYRRAYSYLFLRALLQGRVPTLSLTWKLAALDPGLVPAMPLRFLAVLPNREAESLQWLEHHHHHH | not soluble
MSLEEVLKDIERDKEEKKKEIADAASRETAKIEKEREEKIQILQREYENRMREEGSRLYNSIIDKANVEARNIVRMRVQEILDQYGAKADELIKNLAKTKEYDDVLKKMIEVSRKALGPDCIVKVNTADKGRISDGNIKFEDIDPYGGVLATSRDGKIELDLRISSIRRDILERFKVRLYSMIED | not soluble
MGSDKIHHHHHHMRLNRETIKDRAAWEKIGVRPPYFDLDEVEKNTKEQPKWVHFGGGNIFRGFVAAVLQNLLEEGKEDTGINVIELFDYEVIDKVYKPYDNLSIAVTIKPDGDFEKRIIASVMEALKGDPSHPDWERAKEIFRNPSLQLASLTITEKGYNIEDQAGNLFPQVMEDMKNGPVSPQTSMGKVAALLYERFKAGRLPIALLSLDNFSRNGEKLYSSVKRISEEWVKSGLVEKDFIDYLEKDVAFPWSMIDKIVPGPSEFIKEHLEKLGIEGMEIFVTSKRTHIAPFVNMEWAQYLVIEDSFPNGRPKLEGADRNVFLTDRETVEKAERMKVTTCLNPLHTALAIFGCLLGYKKIADEMKDPLLKKLVEGVGEEGIKVVVDPGIINPREFLNEVINIRLPNPYLPDTPQRIATDTSQKMPIRFGETIKAYHERPDLDPRNLKYIPLVIAGWCRYLMGIDDEGREMQLSPDPLLENLRSYVSKIKFGDPESTDDHLKPILSSQQLFRVNLYEVGLGEKIEELFKKMITGPRAVRKTLEEVVGREDG | not soluble
MEQEAERRRQPQIKQEPESEEEEEEKQEKEEKREEPVEEEEEPEQKPCLKPTLRPISSAPSVSSASGNATPNTPGDESPCGIIIPHENSPDQQQPEEHRPKIGLSLKLGASNSPGQPNSVKRKKLPVDSVFNKFEDEDSDDVPRKRKLVPLDYGEDDKNATKGTVNTEEKRKHIKSLIEKIPTAKPELFAYPLDWSIVDSILMERRIRPWINKKIIEYIGEEEATLVDFVCSKVMAHSSPQSILDDVAMVLDEEAEVFIVKMWRLLIYETEAKKIGLVK | soluble
MIVMPKRLSDEIASRVRALIEEQNLEAGMKLPAERQLALQLGVSRNSLREALAKLVSEGVLVSRRGGGTFVRWQHETWSEQNIVQPLKMLMANDPDYSFDILEARHAIEASTAWHAAMRATAADKEKIRLCFDATLSEDPDLASQADVRFHLAIAEASHNVVLLQTMRGFFDVLQSSVKQSRQRMYLVPPVFSKLTEQHQAVMDAILDGNAEGARKAMMAHLSFVHTTIKRFDEDQARQARITRLPGDHNEMTRENKS | not soluble
MINHLSAIDDIADAEQIRVLFYASNRMVHAPLNKVLDLIKNDTQRDLLSALTQYQEATEQRIETLQKNLDALRLQVSLSTHNLKK | not soluble
MSLNIAIFINTPAQFHFYRNIAKELKNRGHFVELLFRDYGENLEIAKELGLNPTVYAKPSDSKYGKILSLPSDVLRATKLLKKFKPDIITGFGVYDAFSSFLVNVPCIVFNDSEPFINSSYAVQFKLFMPFTNVLITPEAFQPNFGTKHINIPSYKEFSYLHPNYYTPKEDIFELIGIEKNEEYILLRFNAFDAVHDAGITGFTKENKIKLVKELEKHCKVFISSETQVPKEIEKNILKTPKSRIHDVLYYAKILITDTQTMTTEAALLGTPALRYNKFVGGKDMSNFIELEKNYGLIFNYQNSEKIFERAFELLNTENLKEIWKKKRELLLKNKIDSTSFMVWFFENYPESFEKMKTDVTIYENFNDNLAKIKGEGHHHHHH | soluble

Source: the DeepSol protein solubility set
